Source: paper PMC6356862, “A polyextremophilic alcohol dehydrogenase from the Atlantis II Deep Red Sea brine pool” (FEBS Open Bio, 2018)

B1: ADH/A1a (candidate division MSBL1 archaeon SCGC-AAA261F19) (protein)
chain: MKAMQLKEPKPVEQAPLEMVELKEPRPGPKEVKIDVQACGVCHTDLHTVEGELSLPKLPIVPGHEVVGVVEESGDEAEHFEVGDRVGVTWLYSSCGECKFCRRGQENLCEDPMFTGLHADGGYEESMVAKEDFVYPIPKNISDEDAAPLLCAGVIGYRSLRLSEVKPGQRLGLFGFGASAHIVIQLATDMGCEVYVFTRSEEHRRLARELGSAWEGSAKDDPPHRIDSGITFAPVGWIVKEALRDLEKGGTLAINAIHMTPIPELDYDLIYHEKKLRSVANVTREDAEGFLKIAGDIPVQTEVETFPLEEANRALRLLKDSKINGAGVLKVS
notes: N-terminal 20-residue nonsense region of annotated adh/a1 deleted; N-terminal His6-tag; codon-optimized, expressed in Haloferax volcanii H1895 (pTA963); zinc added

What was measured:
[1] = target: Alcohol dehydrogenase/A1a (ADH/A1a) from an uncultured MSBL1 archaeon of the Atlantis II Deep Red Sea brine pool (uncultured MSBL1 (Mediterranean Sea Brine Lake 1) archaeon); experiment: native gel or EMSA; Coomassie-stained native PAGE of purified ADH/A1a (Fig. S4); conditions not given
purified protein [2] = substrate: CCO; experiment: purified protein; conditions: standard oxidation conditions: 3 M KCl, 50 mM glycine/NaOH pH 10.0, 60 °C, 10 mM NAD(P)+, 0.4 mM zinc sulfate, cofactor (NAD+ or NADP+) not specified
purified protein [3] = substrate: CC(C)=CCC/C(C)=C/CO; experiment: purified protein; type: biochemical, candidate division MSBL1 archaeon SCGC-AAA261F19; conditions: standard oxidation conditions: 3 M KCl, 50 mM glycine/NaOH pH 10.0, 60 °C, 10 mM NAD(P)+, 0.4 mM zinc sulfate, cofactor (NAD+ or NADP+) not specified
purified protein [4] = substrate: OC/C=C/c1ccccc1; experiment: purified protein; type: biochemical, candidate division MSBL1 archaeon SCGC-AAA261F19; conditions: standard oxidation conditions: 3 M KCl, 50 mM glycine/NaOH pH 10.0, 60 °C, 10 mM NAD(P)+, 0.4 mM zinc sulfate, cofactor (NAD+ or NADP+) not specified

Molecule | stoichiometry N [1] | Km (purified protein [2]) [µM] | Vmax (purified protein [2]) [µmol/min/mg] | kcat (purified protein [2]) [s⁻¹] | kcat/Km (purified protein [2]) [M⁻¹ s⁻¹] | Km (purified protein [3]) [µM] | Vmax (purified protein [3]) [µmol/min/mg] | kcat (purified protein [3]) [s⁻¹] | kcat/Km (purified protein [3]) [M⁻¹ s⁻¹] | Km (purified protein [4]) [µM] | Vmax (purified protein [4]) [µmol/min/mg] | kcat (purified protein [4]) [s⁻¹] | kcat/Km (purified protein [4]) [M⁻¹ s⁻¹]
Alcohol dehydrogenase/A1a (ADH/A1a) from an uncultured MSBL1 archaeon of the Atlantis II Deep Red Sea brine pool (enzyme) | 4 |  |  |  |  |  |  |  |  |  |  |  | 
B1 |  | 94430 ± 8400 | 0.142 | 0.089 | 0.94 | 270 ± 40 | 0.131 | 0.082 ± 0.003 | 290 ± 18 | 470 ± 90 | 0.237 | 0.144 ± 0.009 | 310 ± 10
